Data on one variant can be found in article PMC5974087, “The RPAP3-Cterminal domain identifies R2TP-like quaternary chaperones” (Nature Communications, 2018).

B1: GFP-RPAP3-Cter [human] / SHQ1 [human (endogenous in HeLa)] (parent)
chain 1: AQFATTVLPPIPANSFQLESDFRQLKSSPDMLYQYLKQIEPSLYPKLFQKNLDPDVFNQIVKILHDFYIEKEKPLLIFEILQRLSELKRFDMAVMFMSETEKKIARALFNHIDKSGLKDSSVEELKKRYGG
chain 2: MLTPAFDLSQDPDFLTIAIRVPYARVSEFDVYFEGSDFKFYAKPYFLRLTLPGRIVENGSEQGSYDADKGIFTIRLPKETPGQHFEGLNMLTALLAPRKSRTAKPLVEEIGASEIPEEVVDDEEFDWEIEQTPCEEVSESALNPQCHYGFGNLRSGVLQRLQDELSDVIDIKDPDFTPAAERRQKRLAAELAKFDPDHYLADFFEDEAIEQILKYNPWWTDKYSKMMAFLEKSQEQENHATLVSFSEEEKYQLRKFVNKSYLLDKRACRQVCYSLIDILLAYCYETRVTEGEKNVESAWNIRKLSPTLCWFETWTNVHDIMVSFGRRVLCYPLYRHFKLVMKAYRDTIKILQLGKSAVLKCLLDIHKIFQENDPAYILNDLYISDYCVWIQKVKSKKLAALAEALKEVSLTKAQLGLELEELEAAALLVQEEETALKAAHSVSGQQTLCSSSEASDSEDSDSSVSSGNEDSGSDSEQDELKDSPSETVSSLQGPFLEESSAFLIVDGGVRRNTAIQESDASQGKPLASSWPLGVSGPLIEELGEQLKTTVQVSEPKGTTAVNRSNIQERDGCQTPNN

The assay covers variants of B1. Kind of assay: SILAC quantitative proteomics of GFP IP. To be noted: with SHQ1 [human (endogenous in HeLa)]; read off a plot.
As to chain 1 AQFATTVLPPIPANSFQLESDFRQLKSSPDMLYQYLKQIEPSLYPKLFQKNLDPDVFNQIVKILHDFYIEKEKPLLIFEILQRLSELKAFDAAVMFMSETEKKIARALFNHIDKSGLKDSSVEELKKRYGG, the enrichment (Log2 SILAC ratio) was 1.5.
